Assay results taken from PMC7597677.

Biological target: cGMP phosphodiesterase 6 (PDE6) hetero-tetramer, native bovine (bovine) (UniProt P11541)
Assay: cryo-EM structure

Chain of UniProt P11541 (P11541 whole entry, chain 1 of 3): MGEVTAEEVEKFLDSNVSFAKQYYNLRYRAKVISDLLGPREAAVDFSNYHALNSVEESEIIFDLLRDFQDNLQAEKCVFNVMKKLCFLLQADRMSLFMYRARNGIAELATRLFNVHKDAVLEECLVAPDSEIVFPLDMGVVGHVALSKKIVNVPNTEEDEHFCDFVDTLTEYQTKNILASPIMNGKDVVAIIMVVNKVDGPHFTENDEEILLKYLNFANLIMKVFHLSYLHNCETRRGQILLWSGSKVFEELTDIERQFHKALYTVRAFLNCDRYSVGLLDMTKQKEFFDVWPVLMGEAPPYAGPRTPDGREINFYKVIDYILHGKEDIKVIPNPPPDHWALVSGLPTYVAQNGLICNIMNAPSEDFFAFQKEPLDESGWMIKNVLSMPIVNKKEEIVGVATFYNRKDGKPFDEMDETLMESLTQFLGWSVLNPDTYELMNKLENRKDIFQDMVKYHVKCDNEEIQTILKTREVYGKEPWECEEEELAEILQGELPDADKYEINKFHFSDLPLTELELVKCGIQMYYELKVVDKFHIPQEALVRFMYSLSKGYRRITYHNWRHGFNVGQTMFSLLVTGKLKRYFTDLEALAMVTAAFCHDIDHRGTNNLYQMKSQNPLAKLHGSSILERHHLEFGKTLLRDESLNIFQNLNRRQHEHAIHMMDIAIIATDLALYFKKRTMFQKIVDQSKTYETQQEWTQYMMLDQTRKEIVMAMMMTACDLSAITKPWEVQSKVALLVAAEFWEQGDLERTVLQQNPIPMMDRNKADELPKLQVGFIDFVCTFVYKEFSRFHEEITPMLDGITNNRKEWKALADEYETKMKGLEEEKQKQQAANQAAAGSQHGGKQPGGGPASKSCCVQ
Chain of UniProt P11541 (P23439 whole entry, chain 2 of 3, further chain): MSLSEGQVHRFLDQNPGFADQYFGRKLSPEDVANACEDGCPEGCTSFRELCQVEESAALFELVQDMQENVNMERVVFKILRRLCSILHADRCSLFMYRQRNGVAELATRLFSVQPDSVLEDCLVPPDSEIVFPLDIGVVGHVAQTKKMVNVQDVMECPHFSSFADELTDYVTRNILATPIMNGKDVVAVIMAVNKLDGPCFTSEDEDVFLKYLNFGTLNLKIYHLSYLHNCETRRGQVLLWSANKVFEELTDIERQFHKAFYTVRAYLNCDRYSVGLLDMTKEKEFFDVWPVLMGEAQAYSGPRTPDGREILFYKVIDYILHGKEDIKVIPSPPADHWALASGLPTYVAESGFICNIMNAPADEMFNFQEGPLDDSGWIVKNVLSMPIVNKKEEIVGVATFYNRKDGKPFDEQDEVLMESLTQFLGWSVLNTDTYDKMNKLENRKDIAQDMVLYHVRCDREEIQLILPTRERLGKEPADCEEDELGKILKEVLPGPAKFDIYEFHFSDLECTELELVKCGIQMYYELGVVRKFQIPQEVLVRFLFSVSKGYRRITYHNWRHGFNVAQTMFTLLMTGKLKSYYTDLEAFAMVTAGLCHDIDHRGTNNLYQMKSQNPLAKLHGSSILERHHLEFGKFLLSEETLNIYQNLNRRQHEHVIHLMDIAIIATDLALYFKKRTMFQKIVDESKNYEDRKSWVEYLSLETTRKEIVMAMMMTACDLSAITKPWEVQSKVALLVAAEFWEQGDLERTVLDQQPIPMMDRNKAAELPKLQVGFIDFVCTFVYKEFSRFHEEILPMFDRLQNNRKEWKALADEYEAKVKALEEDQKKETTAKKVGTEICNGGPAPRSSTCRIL
Chain of UniProt P11541 (P04972 whole entry, chain 3 of 3, further chain): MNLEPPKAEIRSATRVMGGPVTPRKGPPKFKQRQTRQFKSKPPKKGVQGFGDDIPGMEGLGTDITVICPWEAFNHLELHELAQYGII

For “1D4-tagged recombinant GαT subunit (R174C, Q200L), GTP-bound (from UniProt P04695 1-350) (natural protein)”, the stoichiometry N (GαT·GTP per PDE6 hetero-tetramer) was 2.
